Assay results as given in paper PMC11381335, “Unraveling the structure and function of a novel SegC protein interacting with the SegAB chromosome segregation complex in Archaea” (Nucleic Acids Research, 2024).

Molecular target: T1, SegC1-155 (UniProt Q981B4 1-155, del156-165)
T1 sequence: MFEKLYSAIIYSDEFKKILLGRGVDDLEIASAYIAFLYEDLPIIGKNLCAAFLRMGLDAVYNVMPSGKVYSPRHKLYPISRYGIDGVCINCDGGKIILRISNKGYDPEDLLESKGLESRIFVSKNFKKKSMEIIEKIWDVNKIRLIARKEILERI
Assay: fluorescence polarization; FP: 20 mM Tris-HCl pH 7.5, 100 mM NaCl, 2 mM MgCl2, 5 nM Cy3-DNA, room temperature; EMSA: same buffer, 10 nM Cy3-DNA, 37 C 30 min, 4-12% TBE gel
Conditions: protein: recombinant; tags: C-terminal His6; label: 5' Cy3; 20 bp paired with 3' overhang 1 nt at each end (from printed strands)

B1: 21-bp site 1 (S1) dsDNA (dsDNA)
DNA 1: ACGTAGAAGAGTCTAGACTGA
DNA 2: CAGTCTAGACTCTTCTACGTA
  binding result: no binding
